Measurements published in article PMC6308133.

Target: yeast Nsp1p FG-fragment Nsp1p-12FF (residues 262-492; 1xFG, 11xFSFG) (yeast) (UniProt P14907)
Experiment: plasmonic nanopore sensing (shift of the extinction dip); cNsp1 grafted to the interior silicon nitride walls of smaller nanopores (upper diameter 80-90 nm, lower 50-60 nm); Kapβ1 added in increasing concentrations in PBS; equilibrium dip shift averaged over ~10 min; fit to a two component Langmuir isotherm

karyopherinβ1 (from UniProt Q14974 1-876) (natural protein)
K1 (two component Langmuir isotherm, configuration 1): 341 nM
K2 (two component Langmuir isotherm, configuration 2): 3.8 µM
